Reference: publication PMC7689096, “Cyclizing Painkillers: Development of Backbone-Cyclic TAPS Analogs” (Frontiers in Chemistry, 2020)
Values joined by “and” are separate entries in the source; they are usually repeats but may differ in a detail not shown here. Equal values may be shown once. Numbered stars: 1 amine (or outer) side, 2 acyl side, 3 side chain; on linkers, the order of the positions; unused ones are H or OH. Bridge positions count the residues as written; N and C are the ends. Square brackets hold non-standard residues; d marks the D form. Primed or numbered codes have the meaning given here. Ends that are not written are not given here. dR(Nα-6-aminohexyl) = N=C(N)NCCC[C@H](C(=O)[*:2])N(CCCCCCN[*:3])[*:1]; dR(Nα-3-aminopropyl) = N=C(N)NCCC[C@H](C(=O)[*:2])N(CCCN[*:3])[*:1]; N(6-aminohexyl)Gly = O=C(CN(CCCCCCN[*:3])[*:1])[*:2]; NGly(3-aminopropyl) = O=C(CN(CCCN[*:3])[*:1])[*:2]; N(2-Aminoethyl)Gly = O=C(CN(CCN[*:3])[*:1])[*:2]; Gly(N-2-aminoethyl)′ = not defined here; CO = O=C([*:1])[*:2]; Nlys = NCCCCNCC(=O)O; Sar = CNCC(=O)O

Tests used:
[1] = molecular target: T1, δ (DOP, OPRD2) opioid receptor (Mus musculus, UniProt P32300); assay: DOP opioid receptor functional antagonism in NG-10815 cells; format: cell-based, rat; settings: Between 10^−9-10^−6 M, percent inhibition of control specific agonist response
T1 construct: NG-10815 cells which express significant endogenous levels of δ opioid receptors; host or cells: NG-10815 (NG108-15) mouse N18TG2 neuroblastoma x rat C6-BU-1 glioma hybrid cells
Method: (§1) Peptides were tested for μ (MOP, OPRM1) and δ (DOP, OPRD2) opioid receptor activation functional agonism and antagonism using CHO cells expressing human recombinant μ receptors and NG-10815 cells which express significant endogenous levels of δ opioid receptors. The cultures were incubated for 10 min at 37°C followed by impedance measurements of CHO cells and cAMP was assayed by the HTRF method using NG-10815 cells, according to CEREP standard assay protocols. The respective reference, non-peptide small molecules were tested concurrently with the TAPS analogs. The agonist compounds were: DPDPE (selective agonist of DOP receptor) and DAMGO (high MOP receptor specificity) and the antagonist compounds were: Naltrindole (selective DOP receptor antagonist) and CTOP (MOP receptor antagonist). […] The results are expressed as a percentage of respective control-specific response. […] These findings indicate that TAPS cyclic peptides are MOP selective full agonists. […] The cyclic TAPS peptide had lower activity than the linear parent TAPS peptide (90 ± 5%) – a finding that can be attributed to their restricted conformation relative to the flexible linear peptide conformation.
(§2) The respective reference, non-peptide small molecules were tested concurrently with the TAPS analogs; Agonist compounds DPDPE ([D-Pen2,D-Pen5]enkephalin), selective agonist of DOP receptor at 2 × 10^−9 M and DAMGO ([D-Ala2, N-MePhe4, Gly-ol] enkephalin), high MOP specificity at 2.5 × 10^−9 M; Antagonist compounds: naltrindole 7-(cyclopropylmethyl)-6,7-dehydro-4,5α-epoxy-3,14-dihydroxy-6,7-2′,3′-indolomorphinan hydrochloride, selective DOP antagonist, 5 × 10^−10 M and CTOP (D-Phe-Cys-Tyr-D-Trp-Orn-Thr-Pen-Thr-NH2), MOP antagonist at 3.4 × 10^−7 M. Depending on the assay volume and solvent tolerance, the stock solutions were diluted to [100×], [333×] or [1,000×] in 100% DMEM solvent, then either added directly or further diluted to [10×] or [5×] in H2O or Hank's balanced salt solution (HBSS) before addition to the assay well (final solvent concentration kept constant). The cultures were incubated for 10 min at 37°C followed by impedance measurements using cellular dielectric spectroscopy of CHO cells and cAMP was assayed by homogeneous time resolved fluorescence (HTRF) method using NG-10815 cells, according to CEREP standard assay protocols (https://euroscreenfast.com/assays/opioid-orl1-camp-fast-0360c; https://euroscreenfast.com/assays/opioid-op1-delta-camp-fast-0379c). The results (mean of three experiments) are expressed as a percent of control specific agonist response [(measured TAPS specific response/control specific agonist response) × 100] and as a percent inhibition of control specific agonist response [100 – (measured TAPS specific response/control specific agonist response) × 100] obtained in the presence of the TAPS compounds. Results showing a stimulation or an inhibition lower than 25% were considered not significant and mostly attributable to variability of the signal around the control level. Results showing a stimulation or an inhibition higher than 50% were considered to represent significant effects of the TAPS compounds.

[2] = molecular target: T2, human recombinant μ (MOP, OPRM1) receptor (Homo sapiens, UniProt P35372); assay: MOP opioid receptor functional agonism in CHO cells expressing human recombinant μ receptors; format: cell-based; settings: At 10^−6 M, percent of control specific agonist response, values lower than 25% not significant
T2 construct: host or cells: CHO cells
Method: as §1
Evaluation of the Agonist Activity of Compounds at the Human μ Receptor in Transfected CHO Cells, Determined by Measuring Their Effects on cAMP modulation Using the HTRF Detection Method
Thereafter, the adenylyl cyclase activator NKH 477 is added at a final concentration of […]. Following 10 min incubation at 37°C, the cells are lysed and the fluorescence acceptor (D2-labeled cAMP) and fluorescence donor (anti-cAMP antibody labeled with europium cryptate) are added. After 60 min at room temperature, the fluorescence transfer is measured at lex = 337 nm and lem = 620 and 665 nm using a microplate reader (Rubystar, BMG). The cAMP concentration is determined by dividing the signal measured at 665 nm by that measured at 620 nm (ratio). The results are expressed as a percent of the control response to 1 μM DAMGO. The standard reference agonist is DAMGO, which is tested in each experiment at several concentrations to generate a concentration-response curve from which its EC50 value is calculated.
as §2, with “Results showing a stimulation or an inhibition lower than 25% were considered not significant and mostly attributable to variability of the signal around the control level. Results showing a stimulation or an inhibition higher than 50% were considered to represent significant effects of the TAPS compounds.” left out

[3] = molecular target: T2, human recombinant μ (MOP, OPRM1) receptor; assay: MOP opioid receptor functional antagonism in CHO cells expressing human recombinant μ receptors; format: cell-based; settings: Between 10^−9-10^−6 M, percent inhibition of control specific agonist response, values lower than 25% not significant
Method: as §1, §2

[4] = molecular target: T1, δ (DOP, OPRD2) opioid receptor; assay: DOP opioid receptor functional agonism in NG-10815 cells; format: cell-based, rat; settings: At 10^−6 M, percent of control specific agonist response
Method: as §1
Evaluation of the Agonist Activity of Compounds at the Rat delta2 Receptor Endogenously Expressed in NG-10815 Cells, Determined by Measuring Their Effects on Impedance Modulation Using the CellKey (CDS) Detection Method
Cells are seeded onto 96-well plate coated with fibronectin at 2 × 10^5 cells/well in HBSS buffer (Invitrogen) + 20 mM HEPES (Invitrogen) with 0.1% BSA and allowed to equilibrate for 60 min at 37°C before the start of the experiment. Plates are placed onto the system and measurements are made at a temperature of 37°C. […] Impedance measurements are monitored for 10 min after ligand addition. The standard reference agonist is DPDPE, which is tested in each experiment at several concentrations to generate a concentration-response curve from which its EC50 value is calculated.
as §2, with “The results (mean of three experiments) are expressed as a percent of control specific agonist response [(measured TAPS specific response/control specific agonist response) × 100] and as a percent inhibition of control specific agonist response [100 – (measured TAPS specific response/control specific agonist response) × 100] obtained in the presence of the TAPS compounds. Results showing a stimulation or an inhibition lower than 25% were considered not significant and mostly attributable to variability of the signal around the control level. Results showing a stimulation or an inhibition higher than 50% were considered to represent significant effects of the TAPS compounds.” left out

[5] = molecular target: human recombinant μ opioid receptor (human) (UniProt P35372)
human recombinant μ opioid receptor (human), sequence (P35372 whole entry): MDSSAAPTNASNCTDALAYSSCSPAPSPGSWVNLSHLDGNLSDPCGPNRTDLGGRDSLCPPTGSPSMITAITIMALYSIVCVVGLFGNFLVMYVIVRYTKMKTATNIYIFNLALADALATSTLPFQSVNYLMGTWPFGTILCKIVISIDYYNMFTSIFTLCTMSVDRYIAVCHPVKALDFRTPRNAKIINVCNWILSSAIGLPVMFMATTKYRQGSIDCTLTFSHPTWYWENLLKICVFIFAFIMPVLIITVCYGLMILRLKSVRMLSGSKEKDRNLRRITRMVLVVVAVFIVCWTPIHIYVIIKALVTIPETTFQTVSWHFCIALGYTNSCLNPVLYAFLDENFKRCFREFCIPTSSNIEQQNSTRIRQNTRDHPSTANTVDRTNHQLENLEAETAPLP

T2 sequence (P35372 whole entry): as above
T1 sequence (P32300 whole entry): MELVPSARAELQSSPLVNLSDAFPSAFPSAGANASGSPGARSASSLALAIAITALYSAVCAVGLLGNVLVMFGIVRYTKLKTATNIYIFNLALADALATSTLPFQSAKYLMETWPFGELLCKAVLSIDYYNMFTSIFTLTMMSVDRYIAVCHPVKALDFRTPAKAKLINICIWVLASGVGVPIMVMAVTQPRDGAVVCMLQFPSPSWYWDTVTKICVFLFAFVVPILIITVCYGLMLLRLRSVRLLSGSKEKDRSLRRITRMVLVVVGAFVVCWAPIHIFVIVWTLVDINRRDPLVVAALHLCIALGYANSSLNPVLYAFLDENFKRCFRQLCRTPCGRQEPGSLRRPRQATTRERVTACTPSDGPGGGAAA

Row | Molecule | DOP antagonist (%) [1] [%] | MOP agonist (%) [2] | MOP agonist (%) at 10^-6 M: percent of control specific agonist response (DAMGO), CHO cells expressing human recombinant μ receptors; values lower than 25% are not significant [5] [%] | further results
1 | TAPS c(3-6): backbone-cyclic TAPS analog, urea bridge; ring size 19 (YRF[NGly(3-aminopropyl)]-NH2; bridge 2-4 via CO; not fully specified (residue 2); also: urea bridge between the two N-alkyl chains) | 1 | 1% | – | MOP antagonist (%) [3]: 2%
2 | TAPS c(6-3): backbone-cyclic TAPS analog, urea bridge; ring size 19 (YRF[N(6-aminohexyl)Gly]-NH2; bridge 2-4 via CO; not fully specified (residue 2); also: urea bridge between the two N-alkyl chains) | 8 | 75 ± 9% and 75^** % | – | DOP agonist (%) [4]: 19%
3 | TAPS c(4-6): backbone-cyclic TAPS analog, urea bridge; ring size 20 (YRF[Nlys]-NH2; bridge 2-4 via CO; not fully specified (residue 2); also: urea bridge between the two N-alkyl chains) | 3 | 1% | – | MOP antagonist (%) [3]: 1%
4 | TAPS c(4-3): backbone-cyclic TAPS analog, urea bridge; ring size 17 (YRF[Nlys]-NH2; bridge 2-4 via CO; not fully specified (residue 2); also: urea bridge between the two N-alkyl chains) | 0 | 63 ± 5% and 63^** % | – | DOP agonist (%) [4]: 11%
5 | TAPS c(2-3): backbone-cyclic TAPS analog, urea bridge; n-m alkyl chain lengths on nitrogens of Gly and Arg; ring size 15 (YRF[N(2-Aminoethyl)Gly]-NH2; bridge 2-4 via CO; not fully specified (residue 2); also: urea bridge between the two N-alkyl chains) | 2 | 24% | – | MOP antagonist (%) [3]: 1%
6 | Y[dR(Nα-6-aminohexyl)]F[Gly(N-6-aminohexyl)] (bridge 2-4 via CO; not fully specified) [TAPS c(6-6)] | – | – | 21 | –
7 | Y[dR(Nα-6-aminohexyl)]F[Gly(N-3-aminopropyl)] (bridge 2-4 via CO; not fully specified) [TAPS c(3-6)] | – | – | 1 | –
8 | Y[dR(Nα-6-aminohexyl)]F[Gly(N-4-aminobutyl)] (bridge 2-4 via CO; not fully specified) [TAPS c(4-6)] | – | – | 1 | –
9 | Y[dR]F[Sar] [linear peptide Tyr-D-Arg-Phe-Sar (TAPS)] | – | – | – | MOP agonist (%) at 10^-6 M: percent of control specific agonist response (DAMGO), CHO cells expressing human recombinant μ receptors [5]: 90%
10 | Y[dR(Nα-3-aminopropyl)]F[Gly(N-3-aminopropyl)] (bridge 2-4 via CO; not fully specified) [TAPS c(3-3)] | – | – | 1 | –
11 | Y[dR(Nα-6-aminohexyl)]F[Gly(N-2-aminoethyl)′]-NH2 (bridge 2-4 via CO; not fully specified) [TAPS c(2-6)] | – | – | – | MOP agonist (%) at 10^-6 M: percent of control specific agonist response (DAMGO), CHO cells expressing human recombinant μ receptors [5]: 48%
12 | Y[dR(Nα-3-aminopropyl)]F[Gly(N-6-aminohexyl)] (bridge 2-4 via CO; not fully specified) [TAPS c(6-3)] | – | – | – | MOP agonist (%) at 10^-6 M: percent of control specific agonist response (DAMGO), CHO cells expressing human recombinant μ receptors [5]: 75%
13 | Y[dR(Nα-3-aminopropyl)]F[Gly(N-2-aminoethyl)′] (bridge 2-4 via CO; not fully specified) [TAPS c(2-3)] | – | – | 24 | –
14 | Y[dR(Nα-3-aminopropyl)]F[Gly(N-4-aminobutyl)] (bridge 2-4 via CO; not fully specified) [TAPS c(4-3)] | – | – | – | MOP agonist (%) at 10^-6 M: percent of control specific agonist response (DAMGO), CHO cells expressing human recombinant μ receptors [5]: 63%
